Assay results published in the supplement of paper PMC11246515.
± gives the standard deviation of the averaged measurements.

Assay: total protein half-life in vivo (active degradation + dilution); higher = more stable protein
[1] = E. coli NCM3722 delta-clpP delta-lon delta-hslV, growth: N-lim chemostat, doubling time 6 h
[2] = E. coli NCM3722 delta-clpP, growth: N-lim chemostat, doubling time 6 h
[3] = E. coli NCM3722 delta-hslV, growth: N-lim chemostat, doubling time 6 h
[4] = E. coli NCM3722 delta-lon, growth: N-lim chemostat, doubling time 6 h
[5] = E. coli NCM3722 delta-smpB, growth: N-lim chemostat, doubling time 6 h
[6] = wild type E. coli NCM3722, growth: C-lim chemostat, doubling time 3 h
[7] = wild type E. coli NCM3722, growth: C-lim chemostat, doubling time 6 h
[8] = wild type E. coli NCM3722, growth: C-lim chemostat, doubling time 12 h
[9] = wild type E. coli NCM3722, growth: N-lim chemostat, doubling time 6 h
[10] = wild type E. coli NCM3722, growth: N-lim chemostat, doubling time 12 h
[11] = wild type E. coli NCM3722, growth: P-lim chemostat, doubling time 6 h
[12] = wild type E. coli NCM3722, growth: P-lim chemostat, doubling time 12 h

| Sequence | total protein half-life in vivo [1] | total protein half-life in vivo [2] | total protein half-life in vivo [3] | total protein half-life in vivo [4] | total protein half-life in vivo [5] | total protein half-life in vivo [6] | total protein half-life in vivo [7] | total protein half-life in vivo [8] | total protein half-life in vivo [9] | total protein half-life in vivo [10] | total protein half-life in vivo [11] | total protein half-life in vivo [12] |
| --- | --- | --- | --- | --- | --- | --- | --- | --- | --- | --- | --- | --- |
| MSEKLQVVTLLGSLRKGSFNGMVARTLPKIAPASMEVNALPSIADIPLYDADVQQEEGFPATVEALAEQIRQADGVVIVTPEYNYSVPGGLKNAIDWLSRLPDQPLAGKPVLIQTSSMGVIGGARCQYHLRQILVFLDAMVMNKPEFMGGVIQNKVDPQTGEVIDQGTLDHLTGQLTAFGEFIQRVKI [P0AGE6] | 6.73 ± 1.1 h | 5.46 ± 0.56 h | 5.61 ± 0.31 h | 5.83 ± 0.28 h | 5.24 ± 0.12 h | 3.116 ± 0.014 h | 5.74 ± 0.21 h | 11.1 ± 0.21 h | 5.27 ± 0.43 h | 9.39 ± 0.36 h | 5.31 ± 0.077 h | 12.1 ± 0.48 h |
| MGDSILSQAEIDALLNGDSEVKDEPTASVSGESDIRPYDPNTQRRVVRERLQALEIINERFARHFRMGLFNLLRRSPDITVGAIRIQPYHEFARNLPVPTNLNLIHLKPLRGTGLVVFSPSLVFIAVDNLFGGDGRFPTKVEGREFTHTEQRVINRMLKLALEGYSDAWKAINPLEVEYVRSEMQVKFTNITTSPNDIVVNTPFHVEIGNLTGEFNICLPFSMIEPLRELLVNPPLENSRNEDQNWRDNLVRQVQHSQLELVANFADISLRLSQILKLNPGDVLPIEKPDRIIAHVDGVPVLTSQYGTLNGQYALRIEHLINPILNSLNEEQPK | 4.44 ± 0.11 h | – | – | – | – | 2.17 ± 0.39 h | 3.96 ± 0.9 h | 6.79 ± 0.98 h | – | – | – | – |
| MSRTIFCTFLQREAEGQDFQLYPGELGKRIYNEISKEAWAQWQHKQTMLINEKKLNMMNAEHRKLLEQEMVNFLFEGKEVHIEGYTPEDKK [P0A8P3] | 6.2 ± 0.24 h | 4.957 ± 0.0071 h | 4.94 ± 1.4 h | 5.01 ± 0.2 h | 3.99 ± 0.37 h | 3.07 ± 0.31 h | 5.14 ± 0.14 h | 8.58 ± 1.5 h | 3.63 ± 0.074 h | 6.39 ± 0.51 h | 5.7 h | 9.27 ± 1.4 h |
| MDTKKIFKHIPWVILGIIGAFCLAVVALRRGEHISALWIVVASVSVYLVAYRYYSLYIAQKVMKLDPTRATPAVINNDGLNYVPTNRYVLFGHHFAAIAGAGPLVGPVLAAQMGYLPGTLWLLAGVVLAGAVQDFMVLFISSRRNGASLGEMIKEEMGPVPGTIALFGCFLIMIIILAVLALIVVKALAESPWGVFTVCSTVPIALFMGIYMRFIRPGRVGEVSVIGIVLLVASIYFGGVIAHDPYWGPALTFKDTTITFALIGYAFVSALLPVWLILAPRDYLATFLKIGVIVGLALGIVVLNPELKMPAMTQYIDGTGPLWKGALFPFLFITIACGAVSGFHALISSGTTPKLLANETDARFIGYGAMLMESFVAIMALVAASIIEPGLYFAMNTPPAGLGITMPNLHEMGGENAPIIMAQLKDVTAHAAATVSSWGFVISPEQILQTAKDIGEPSVLNRAGGAPTLAVGIAHVFHKVLPMADMGFWYHFGILFEALFILTALDAGTRSGRFMLQDLLGNFIPFLKKTDSLVAGIIGTAGCVGLWGYLLYQGVVDPLGGVKSLWPLFGISNQMLAAVALVLGTVVLIKMKRTQYIWVTVVPAVWLLICTTWALGLKLFSTNPQMEGFFYMASQYKEKIANGTDLTAQQIANMNHIVVNNYTNAGLSILFLIVVYSIIFYGFKTWLAVRNSDKRTDKETPYVPIPEGGVKISSHH | 5.48 ± 0.6 h | – | 4.43 h | 4.19 ± 0.26 h | 5.39 ± 0.18 h | > 4 h | 4.24 h | 6.86 h | 5.42 ± 2.2 h | 9.16 ± 0.46 h | 5.57 ± 0.48 h | 8.62 ± 0.6 h |
| MYDNLKSLGITNPEEIDRYSLRQEANNDILKIYFQKDKGEFFAKSVKFKYPRQRKTVVADGVGQGYKEVQEISPNLRYIIDELDQICQRDRSEVDLKRKILDDLRHLESVVTNKISEIEADLEKLTRK | – | 4.32 ± 0.1 h | 4.18 ± 0.52 h | 4.82 ± 0.08 h | 3.61 ± 0.31 h | 3.26 ± 0.19 h | 5.55 ± 0.13 h | 8.4 ± 0.45 h | 3.77 ± 0.094 h | 6.16 ± 0.23 h | 5.45 ± 1.6 h | 12 ± 0.17 h |
| MSQQRPDRIKQMLHYLWQHRHLSTQQAMELFGYAEATVRRDFQYIVNQYPGMIRGHGCLDFDDSTDDKEYVFDVKRTLQSVAKREIAALARTMIKDGDCFFLDSGSTCLELAKCLADARVKVICNDIKIANELGCFPHVESYIIGGLIRPGYFSVGESLALEMINAFSVERAFISCDALSLETGITNATMFEVGVKTRIIQRSREVILMADHSKFDAVEPHAVATLSCIKTIISDSGLPETIAQRYQRAGCQLFLPHSIK | 6.15 ± 1.6 h | – | – | – | 0.761 h | 2 h | 2.57 ± 0.049 h | 3.04 ± 0.33 h | – | – | – | – |
| MALTKAEMSEYLFDKLGLSKRDAKELVELFFEEIRRALENGEQVKLSGFGNFDLRDKNQRPGRNPKTGEDIPITARRVVTFRPGQKLKSRVENASPKDE [P0A6X7] | – | 6.46 ± 1 h | – | 7.06 ± 0.79 h | 5.2 ± 0.41 h | 3.249 ± 0.0028 h | – | – | 5.83 ± 0.23 h | – | 6.33 ± 0.39 h | 11.7 ± 1.9 h |
| MNSLYTAEGVMDKHSLWQRYVPLVRHEALRLQVRLPASVELDDLLQAGGIGLLNAVERYDALQGTAFTTYAVQRIRGAMLDELRSRDWVPRSVRRNAREVAQAIGQLEQELGRNATETEVAERLGIDIADYRQMLLDTNNSQLFSYDEWREEHGDSIELVTDDHQRENPLQQLLDSNLRQRVMEAIETLPEREKLVLTLYYQEELNLKEIGAVLEVGESRVSQLHSQAIKRLRTKLGKL [P0AEM6] | 4.94 h | – | – | – | – | 1.78 ± 0.19 h | 2.5 ± 0.38 h | 3 ± 0.9 h | – | – | – | – |
| MKKIIALMLFLTFFAHANDSEPGSQYLKAAEAGDRRAQYFLADSWFSSGDLSKAEYWAQKAADSGDADACALLAQIKITNPVSLDYPQAKVLAEKAAQAGSKEGEVTLAHILVNTQAGKPDYPKAISLLENASEDLENDSAVDAQMLLGLIYANGVGIKADDDKATWYFKRSSAISRTGYSEYWAGMMFLNGEEGFIEKNKQKALHWLNLSCMEGFDTGCEEFEKLTNG [P0AF56] | 2.83 ± 0.045 h | 2.24 ± 1.1 h | – | 1.32 h | 0.675 h | 1.04 ± 0.074 h | 1.62 ± 0.75 h | 2.73 ± 2.1 h | 1.12 h | 0.655 h | 1.33 ± 0.63 h | 1.48 ± 0.49 h |
| MEPKTKKQRSLYIPYAGPVLLEFPLLNKGSAFSMEERRNFNLLGLLPEVVETIEEQAERAWIQYQGFKTEIDKHIYLRNIQDTNETLFYRLVNNHLDEMMPVIYTPTVGAACERFSEIYRRSRGVFISYQNRHNMDDILQNVPNHNIKVIVVTDGERILGLGDQGIGGMGIPIGKLSLYTACGGISPAYTLPVVLDVGTNNQQLLNDPLYMGWRNPRITDDEYYEFVDEFIQAVKQRWPDVLLQFEDFAQKNAMPLLNRYRNEICSFNDDIQGTAAVTVGTLIAASRAAGGQLSEKKIVFLGAGSAGCGIAEMIISQTQREGLSEEAARQKVFMVDRFGLLTDKMPNLLPFQTKLVQKRENLSDWDTDSDVLSLLDVVRNVKPDILIGVSGQTGLFTEEIIREMHKHCPRPIVMPLSNPTSRVEATPQDIIAWTEGNALVATGSPFNPVVWKDKIYPIAQCNNAFIFPGIGLGVIASGASRITDEMLMSASETLAQYSPLVLNGEGMVLPELKDIQKVSRAIAFAVGKMAQQQGVAVKTSAEALQQAIDDNFWQAEYRDYRRTSI | 6.33 ± 0.63 h | 6.5 ± 0.58 h | 5.686 ± 0.037 h | 6.01 ± 0.3 h | 6.06 ± 0.73 h | 3.1 ± 0.2 h | 5.94 ± 0.31 h | 10.8 ± 0.22 h | 5.23 ± 0.31 h | 10.8 ± 0.32 h | 6.05 ± 0.42 h | 12.1 ± 0.8 h |
| MSRSQNLRHNVINQVIDDMARGHIPSPLPSQSALAEMYNISRTTVRHILSHLRECGVLTQVGNDYVIARKPDHDDGFACTTASMSEQNKVFEQAFFTMINQRQLRPGETFSELQLARAAGVSPVVVREYLLKFGRYNLIHSEKRGQWSMKQFDQSYAEQLFELREMLETHSLQHFLNLPDHDPRWLQAKTMLERHRLLRDNIGNSFRMFSQLDRDFHSLLLSAADNIFFDQSLEIISVIFHFHYQWDESDLKQRNIIAVDEHMTILSALICRSDLDATLALRNHLNSAKQSMIRSINENTRYAH | – | – | – | – | – | 0.713 h | 1.15 h | – | – | – | – | – |
| MAEKFIKHTGLVVPLDAANVDTDAIIPKQFLQKVTRTGFGAHLFNDWRFLDEKGQQPNPDFVLNFPQYQGASILLARENFGCGSSREHAPWALTDYGFKVVIAPSFADIFYGNSFNNQLLPVKLSDAEVDELFALVKANPGIHFDVDLEAQEVKAGEKTYRFTIDAFRRHCMMNGLDSIGLTLQHDDAIAAYEAKQPAFMN | 3.91 ± 0.1 h | 1.33 ± 0.047 h | 2.363 ± 0.02 h | 3.85 ± 0.072 h | 2.306 ± 0.018 h | 1.96 ± 0.16 h | 3.02 ± 0.097 h | 3.926 ± 0.038 h | 2.54 ± 0.17 h | 4.05 ± 1.3 h | 2.1 ± 0.28 h | 5.15 ± 0.8 h |
| MGSTRKGMLNVLIAAVLWGSSGVCAQYIMEQSQMSSQFLTMTRLIFAGLILLTLSFVHGDKIFSIINNHKDAISLLIFSVVGALTVQLTFLLTIEKSNAATATVLQFLSPTIIVAWFSLVRKSRPGILVFCAILTSLVGTFLLVTHGNPTSLSISPAALFWGIASAFAAAFYTTYPSTLIARYGTLPVVGWSMLIGGLILLPFYARQGTNFVVNGSLILAFFYLVVIGTSLTFSLYLKGAQLIGGPKASILSCAEPLSSALLSLLLLGITFTLPDWLGTLLILSSVILISMDSRRRARKINRPARHK | – | 6.18 h | 4.72 ± 1.2 h | 5.26 h | – | – | 6.04 h | 13.3 h | 5.29 h | 12.8 h | 5.97 h | 12 ± 0.74 h |
